From publication PMC4191399
Numbering of substitutions follows the chain as printed.

Experiments:
Experiment in all cases: fluorescence polarization
Settings in all cases: internal 6-carboxyfluorescein in backbone between U12 and C13 (central tetraloop bases); 25 mM MOPS pH 7.4, 150 mM KCl, 2 mM DTT, 2 mM MgCl2, 0.01% Triton X-100, 1 nM RNA, room temperature, 1 h
[1] = target: T1, RIG-I Q784A/K788A/R791A Q784A;K788A;R791A (Homo sapiens) (UniProt O95786)
T1 sequence: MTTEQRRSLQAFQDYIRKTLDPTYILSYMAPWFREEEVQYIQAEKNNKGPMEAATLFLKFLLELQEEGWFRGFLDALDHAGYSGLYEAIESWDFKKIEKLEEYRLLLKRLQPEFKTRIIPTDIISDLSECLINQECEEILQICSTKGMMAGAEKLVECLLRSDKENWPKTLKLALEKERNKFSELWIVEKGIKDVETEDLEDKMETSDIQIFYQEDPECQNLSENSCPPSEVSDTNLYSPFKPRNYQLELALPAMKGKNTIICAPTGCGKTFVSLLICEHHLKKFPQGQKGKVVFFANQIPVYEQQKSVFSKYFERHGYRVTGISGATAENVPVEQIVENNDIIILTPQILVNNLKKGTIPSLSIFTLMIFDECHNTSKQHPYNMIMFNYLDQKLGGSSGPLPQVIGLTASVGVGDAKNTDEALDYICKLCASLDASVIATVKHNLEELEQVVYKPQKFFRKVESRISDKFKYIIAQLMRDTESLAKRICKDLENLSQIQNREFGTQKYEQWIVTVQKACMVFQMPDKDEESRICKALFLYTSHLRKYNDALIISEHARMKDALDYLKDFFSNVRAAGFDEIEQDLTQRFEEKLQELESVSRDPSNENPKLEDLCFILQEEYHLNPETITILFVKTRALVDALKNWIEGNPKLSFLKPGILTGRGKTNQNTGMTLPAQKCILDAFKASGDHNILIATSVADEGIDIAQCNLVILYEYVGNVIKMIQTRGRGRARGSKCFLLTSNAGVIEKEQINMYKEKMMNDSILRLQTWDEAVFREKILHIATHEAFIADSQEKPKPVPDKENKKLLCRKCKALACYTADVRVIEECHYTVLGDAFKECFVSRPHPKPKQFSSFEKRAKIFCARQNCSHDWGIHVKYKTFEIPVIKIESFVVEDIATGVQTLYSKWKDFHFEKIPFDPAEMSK

[2] = target: T2, RIG-I Q784A Q784A (Homo sapiens) (UniProt O95786)
T2 sequence: T1 sequence with A788K, A791R

[3] = target: T3, RIG-I Q784A/K788A Q784A;K788A (Homo sapiens) (UniProt O95786)
T3 sequence: T1 sequence with A791R

Q: Which results are given for GGACGUACGUUUCGACGUACGUCC [5'OH10L-F]?
A: Kd [1]: 0.172 µM; Kd [2]: 0.0238 µM; Kd [3]: 0.0858 µM
